{
  "source": "patent US20170209564A1",
  "binders": {"B1": {"name": "CR6261 (antibody, V domains shown)", "VH": "EVQLVESGAEVKKPGSSVKVSCKASGGPFRSYAISWVRQAPGQGPEWMGGIIPIFGTTKYAPKFQGRVTITADDFAGTVYMELSSLRSEDTAMYYCAKHMGYQVRETMDVWGKGTTVTVSS", "VL": "QSVLTQPPSVSAAPGQKVTISCSGSSSNIGNDYVSWYQQLPGTAPKLLIYDNNKRPSGIPDRFSGSKSGTSATLGITGLQTGDEANYYCATWDRRPTAYVVFGGGTKLTVLG"}},
  "assay_in_all_cases": "ELISA, coated CR6261, P. pastoris medium",
  "key": {"[1]": {"biological_target": "12C6", "settings": "remark: other sources report otherwise"}, "[2]": {"biological_target": "26H1", "settings": "remark: other sources report otherwise"}, "[3]": {"biological_target": "27B10", "settings": "remark: other sources report otherwise"}, "[4]": {"biological_target": "2D9", "settings": "remark: other sources report otherwise"}, "[5]": {"biological_target": "36E4", "settings": "remark: other sources report otherwise"}, "[6]": {"biological_target": "48B10", "settings": "remark: other sources report otherwise"}, "[7]": {"biological_target": "48B11", "settings": "remark: other sources report otherwise"}, "[8]": {"biological_target": "48D11", "settings": "remark: other sources report otherwise"}, "[9]": {"biological_target": "4C1", "settings": "remark: other sources report otherwise"}, "[10]": {"biological_target": "50G10", "settings": "remark: other sources report otherwise"}, "[11]": {"biological_target": "51G3", "settings": "remark: other sources report otherwise"}, "[12]": {"biological_target": "53G10", "settings": "remark: other sources report otherwise"}, "[13]": {"biological_target": "54H4", "settings": "remark: other sources report otherwise"}, "[14]": {"biological_target": "55G7", "settings": "remark: other sources report otherwise"}, "[15]": {"biological_target": "55H2", "settings": "remark: other sources report otherwise"}, "[16]": {"biological_target": "57B8", "settings": "remark: other sources report otherwise"}, "[17]": {"biological_target": "58A5", "settings": "remark: other sources report otherwise"}, "[18]": {"biological_target": "61A9", "settings": "remark: other sources report otherwise"}, "[19]": {"biological_target": "67C10", "settings": "remark: other sources report otherwise"}, "[20]": {"biological_target": "67C11", "settings": "remark: other sources report otherwise"}, "[21]": {"biological_target": "69D2", "settings": "remark: other sources report otherwise"}, "[22]": {"biological_target": "69G8", "settings": "remark: other sources report otherwise"}, "[23]": {"biological_target": "6E12", "settings": "remark: other sources report otherwise"}, "[24]": {"biological_target": "71A4", "settings": "remark: other sources report otherwise"}, "[25]": {"biological_target": "71C4", "settings": "remark: other sources report otherwise"}, "[26]": {"biological_target": "71D3", "settings": "remark: other sources report otherwise"}, "[27]": {"biological_target": "71H2", "settings": "remark: other sources report otherwise"}, "[28]": {"biological_target": "72D4", "settings": "remark: other sources report otherwise"}, "[29]": {"biological_target": "74H9", "settings": "remark: other sources report otherwise"}, "[30]": {"biological_target": "78G2", "settings": "remark: other sources report otherwise"}, "[31]": {"biological_target": "79D5", "settings": "remark: other sources report otherwise"}, "[32]": {"biological_target": "79F8", "settings": "remark: other sources report otherwise"}, "[33]": {"biological_target": "7A7", "settings": "remark: other sources report otherwise"}, "[34]": {"biological_target": "80F10", "settings": "remark: other sources report otherwise"}, "[35]": {"biological_target": "84B8", "settings": "remark: other sources report otherwise"}, "[36]": {"biological_target": "84D3", "settings": "remark: other sources report otherwise"}, "[37]": {"biological_target": "85A7"}, "[38]": {"biological_target": "86B3", "settings": "remark: other sources report otherwise"}, "[39]": {"biological_target": "86G3", "settings": "remark: other sources report otherwise"}, "[40]": {"biological_target": "87H5", "settings": "remark: other sources report otherwise"}, "[41]": {"biological_target": "89F11", "settings": "remark: other sources report otherwise"}, "[42]": {"biological_target": "8A10", "settings": "remark: other sources report otherwise"}, "[43]": {"biological_target": "8D7", "settings": "remark: other sources report otherwise"}, "[44]": {"biological_target": "91C4", "settings": "remark: other sources report otherwise"}, "[45]": {"biological_target": "96A7", "settings": "remark: other sources report otherwise"}, "[46]": {"biological_target": "96G5", "settings": "remark: other sources report otherwise"}, "[47]": {"biological_target": "96H8", "settings": "remark: other sources report otherwise"}, "[48]": {"biological_target": "97G10", "settings": "remark: other sources report otherwise"}},
  "data": [
    {"binder": "B1", "values": [
      {"measurement": "CR6261 binding signal", "setting": "[1]", "result": 289000},
      {"measurement": "CR6261 binding signal", "setting": "[2]", "result": 79700},
      {"measurement": "CR6261 binding signal", "setting": "[3]", "result": 187000},
      {"measurement": "CR6261 binding signal", "setting": "[4]", "result": 316000},
      {"measurement": "CR6261 binding signal", "setting": "[5]", "result": 196000},
      {"measurement": "CR6261 binding signal", "setting": "[6]", "result": 103000},
      {"measurement": "CR6261 binding signal", "setting": "[7]", "result": 303000},
      {"measurement": "CR6261 binding signal", "setting": "[8]", "result": 121000},
      {"measurement": "CR6261 binding signal", "setting": "[9]", "result": 386000},
      {"measurement": "CR6261 binding signal", "setting": "[10]", "result": 264000},
      {"measurement": "CR6261 binding signal", "setting": "[11]", "result": 460000},
      {"measurement": "CR6261 binding signal", "setting": "[12]", "result": 108000},
      {"measurement": "CR6261 binding signal", "setting": "[13]", "result": 292000},
      {"measurement": "CR6261 binding signal", "setting": "[14]", "result": 616000},
      {"measurement": "CR6261 binding signal", "setting": "[15]", "result": 58100},
      {"measurement": "CR6261 binding signal", "setting": "[16]", "result": 58400},
      {"measurement": "CR6261 binding signal", "setting": "[17]", "result": 90700},
      {"measurement": "CR6261 binding signal", "setting": "[18]", "result": 383000},
      {"measurement": "CR6261 binding signal", "setting": "[19]", "result": 306000},
      {"measurement": "CR6261 binding signal", "setting": "[20]", "result": 209000},
      {"measurement": "CR6261 binding signal", "setting": "[21]", "result": 446000},
      {"measurement": "CR6261 binding signal", "setting": "[22]", "result": 481000},
      {"measurement": "CR6261 binding signal", "setting": "[23]", "result": 373000},
      {"measurement": "CR6261 binding signal", "setting": "[24]", "result": "1.05e+06"},
      {"measurement": "CR6261 binding signal", "setting": "[25]", "result": "1.35e+06"},
      {"measurement": "CR6261 binding signal", "setting": "[26]", "result": "1.57e+06"},
      {"measurement": "CR6261 binding signal", "setting": "[27]", "result": "1.11e+06"},
      {"measurement": "CR6261 binding signal", "setting": "[28]", "result": 330000},
      {"measurement": "CR6261 binding signal", "setting": "[29]", "result": "1.28e+06"},
      {"measurement": "CR6261 binding signal", "setting": "[30]", "result": 56700},
      {"measurement": "CR6261 binding signal", "setting": "[31]", "result": 703000},
      {"measurement": "CR6261 binding signal", "setting": "[32]", "result": 185000},
      {"measurement": "CR6261 binding signal", "setting": "[33]", "result": 988000},
      {"measurement": "CR6261 binding signal", "setting": "[34]", "result": 90900},
      {"measurement": "CR6261 binding signal", "setting": "[35]", "result": 582000},
      {"measurement": "CR6261 binding signal", "setting": "[36]", "result": 84400},
      {"measurement": "CR6261 binding signal", "setting": "[37]", "result": 236000},
      {"measurement": "CR6261 binding signal", "setting": "[38]", "result": 901000},
      {"measurement": "CR6261 binding signal", "setting": "[39]", "result": 184000},
      {"measurement": "CR6261 binding signal", "setting": "[40]", "result": 78100},
      {"measurement": "CR6261 binding signal", "setting": "[41]", "result": 84800},
      {"measurement": "CR6261 binding signal", "setting": "[42]", "result": 360000},
      {"measurement": "CR6261 binding signal", "setting": "[43]", "result": 73400},
      {"measurement": "CR6261 binding signal", "setting": "[44]", "result": "1.16e+06"},
      {"measurement": "CR6261 binding signal", "setting": "[45]", "result": 83300},
      {"measurement": "CR6261 binding signal", "setting": "[46]", "result": 108000},
      {"measurement": "CR6261 binding signal", "setting": "[47]", "result": 206000},
      {"measurement": "CR6261 binding signal", "setting": "[48]", "result": 253000}
    ]}
  ]
}
